Literature values in PMC7019049.

Columns and labels:
pepJIP1 (Homo sapiens) = pepJIP1 (Homo sapiens) (UniProt Q9UQF2)
[1] = target: MIG6 peptide (Homo sapiens) (UniProt Q9UJM3)
Sequence of UniProt Q9UJM3 (Q9UJM3 2-462): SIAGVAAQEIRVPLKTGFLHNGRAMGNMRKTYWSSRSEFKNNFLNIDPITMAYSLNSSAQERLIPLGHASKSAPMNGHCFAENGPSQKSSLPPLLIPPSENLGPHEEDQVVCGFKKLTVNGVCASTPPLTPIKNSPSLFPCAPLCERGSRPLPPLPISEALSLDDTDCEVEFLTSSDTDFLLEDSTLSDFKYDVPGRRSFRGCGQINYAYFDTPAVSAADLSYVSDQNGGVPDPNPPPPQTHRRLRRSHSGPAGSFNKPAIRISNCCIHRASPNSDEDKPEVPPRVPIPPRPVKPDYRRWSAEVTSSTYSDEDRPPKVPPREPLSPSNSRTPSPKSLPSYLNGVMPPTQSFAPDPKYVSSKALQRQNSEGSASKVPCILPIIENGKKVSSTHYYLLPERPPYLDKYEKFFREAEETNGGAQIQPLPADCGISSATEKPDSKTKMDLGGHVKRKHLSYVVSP

Sequence of UniProt Q9UQF2 (Q9UQF2 whole entry): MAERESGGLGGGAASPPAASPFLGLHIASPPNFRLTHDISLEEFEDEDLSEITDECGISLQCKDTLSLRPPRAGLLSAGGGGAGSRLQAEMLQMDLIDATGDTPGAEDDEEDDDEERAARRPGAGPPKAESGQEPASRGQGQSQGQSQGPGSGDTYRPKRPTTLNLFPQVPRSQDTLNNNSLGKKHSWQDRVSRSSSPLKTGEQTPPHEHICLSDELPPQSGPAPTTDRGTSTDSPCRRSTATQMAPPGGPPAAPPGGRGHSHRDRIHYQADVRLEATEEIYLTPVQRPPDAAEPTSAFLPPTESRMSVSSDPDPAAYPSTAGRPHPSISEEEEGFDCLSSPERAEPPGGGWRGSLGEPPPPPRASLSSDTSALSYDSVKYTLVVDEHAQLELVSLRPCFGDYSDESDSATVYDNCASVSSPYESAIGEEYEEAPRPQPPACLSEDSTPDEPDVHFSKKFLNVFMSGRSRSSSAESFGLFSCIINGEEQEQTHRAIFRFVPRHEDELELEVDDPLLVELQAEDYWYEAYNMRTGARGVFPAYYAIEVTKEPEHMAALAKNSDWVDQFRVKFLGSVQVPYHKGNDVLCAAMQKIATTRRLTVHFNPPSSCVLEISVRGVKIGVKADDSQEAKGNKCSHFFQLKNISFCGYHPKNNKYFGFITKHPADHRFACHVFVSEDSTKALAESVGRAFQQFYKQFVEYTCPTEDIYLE

Row | Substance | Kd (pepJIP1 (Homo sapiens)) | Kd [1]
1 | MAPK8 (JNK1) (from UniProt P45983) | 0.42 µM | –
2 | EGFR kinase domain (from UniProt P00533) | – | 13 µM
